Laboratory results published in US20140050720A1 (Scripps Research, published 2014).

B1: BLV1H12-GLP-1 fusion antibody (antibody, human IgG1)
heavy: not shown
light: QAVLNQPSSVSGSLGQRVSITCSGSSSNVGNGYVSWYQLIPGSAPRTLIYGDTSRASGVPDRFSGSRSGNTATLTISSLQAEDEADYFCASAEDSSSNAVFGSGTTLTVLGQPKSPPSVTLFPPSTEELNGNKATLVCLISDFYPGSVTVVWKADGSTITRNVETTRASKQSNSKYAASSYLSLTSSDWKSKGSYSCEVTHEGSTVTKTVKPSECS
B2: BLV1H12-GLP-1 clip fusion antibody (antibody)
heavy: not shown
light: B1 light
modifications: cleaved by Factor Xa at the IEGR site in front of GLP-1, releasing the N-terminus of GLP-1
B3: BLV1H12-Ex-4 fusion antibody (antibody, human IgG1)
heavy: not shown
light: B1 light

Target: GLP-1 receptor on HEK293 cells carrying a cAMP responsive luciferase reporter gene (UniProt P43220 24-463, limits assumed)
Experiment: cell-based or functional assay

Binder	RLU (cAMP responsive luciferase reporter) at 1.26953 nM	RLU (cAMP responsive luciferase reporter) at 2.53906 nM	RLU (cAMP responsive luciferase reporter) at 5.07813 nM	RLU (cAMP responsive luciferase reporter) at 10.15625 nM	RLU (cAMP responsive luciferase reporter) at 20.3125 nM	RLU (cAMP responsive luciferase reporter) at 40.625 nM	RLU (cAMP responsive luciferase reporter) at 81.25 nM	RLU (cAMP responsive luciferase reporter) at 162.5 nM	RLU (cAMP responsive luciferase reporter) at 325 nM	RLU (cAMP responsive luciferase reporter) at 650 nM	RLU (cAMP responsive luciferase reporter) at 1300 nM
B1	18600 RLU	24500 RLU	43200 RLU	66600 RLU	105000 RLU	144000 RLU	151000 RLU	167000 RLU	171000 RLU	160000 RLU	185000 RLU
B2	4740 RLU	5800 RLU	4400 RLU	5200 RLU	7780 RLU	13600 RLU	33800 RLU	65800 RLU	101000 RLU	141000 RLU	169000 RLU
B3	6120 RLU	6360 RLU	8500 RLU	10400 RLU	19300 RLU	28000 RLU	54800 RLU	90700 RLU	118000 RLU	135000 RLU	160000 RLU
